The target of the test is SUDV VP35:[change] peptide (residues 1 to 34) (Sudan virus (SUDV), strain Gulu, UniProt Q5XX07 1-34). The test is described as follows: BLI. To be noted: both partners purified.

B1: His-SUDV-NP(34-367) (domain or fragment)
chain: GIVRQRVIPVYVVNDLEGICQHIIQAFEAGVDFQDNADSFLLLLCLHHAYQGDHRLFLKSDAVQYLEGHGFRFEVREKENVHRLDELLPNVTGGKNLRRTLAAMPEEETTEANAGQFLSFASLFLPKLVVGEKACLEKVQRQIQVHAEQGLIQYPTSWQSVGHMMVIFRLMRTNFLIKFLLIHQGMHMVAGHDANDTVISNSVAQARFSGLLIVKTVLDHILQKTDLGVRLHPLARTAKVKNEVSSFKAALGSLAKHGEYAPFARLLNLSGVNNLEHGLYPQLSAIALGVATAHGSTLAGVNVGEQYQQLREAATEAEKQLQQYAETRELDNLG
B1: the Kd (commonly the equilibrium constant for the complex coming apart) was roughly 266 nM.

(Values after PMC6650547 (mBio, 2019).)
